The values that follow come from US11661611.

Common to all, as to assay: cell_activity
In data set [1] the test system is ZFN 59581 (synthetic construct). To be noted: indels with partner 59580, 6 ug mRNA, activated T cells; 83 at 2 ug, 72 at 0.5 ug.
Data set [2] deals with ZFN 59580 (synthetic construct). The settings on record: indels with partner 59581, 6 ug mRNA, activated T cells; 83 at 2 ug, 72 at 0.5 ug.
Data set [3] relates to ZFN 59441 (synthetic construct). The settings on record: indels with partner 59440, 6 ug mRNA, activated T cells; 82 at 2 ug, 59 at 0.5 ug.
Data set [4] has as its system ZFN 59489 (synthetic construct). To be noted: indels with partner 59488, 6 ug mRNA, activated T cells; 84 at 2 ug, 60 at 0.5 ug.
Data set [5] relates to ZFN 59488 (synthetic construct). The settings on record: indels with partner 59489, 6 ug mRNA, activated T cells; 84 at 2 ug, 60 at 0.5 ug.
Data set [6] has as its system ZFN 59557 (synthetic construct). To be noted: indels with partner 59558, 6 ug mRNA, activated T cells; 80 at 2 ug, 55 at 0.5 ug.
For data set [7], the system named is ZFN 59558 (synthetic construct). To be noted: indels with partner 59557, 6 ug mRNA, activated T cells; 80 at 2 ug, 55 at 0.5 ug.
Data set [8] has as its system ZFN 59440 (synthetic construct). The settings on record: indels with partner 59441, 6 ug mRNA, activated T cells; 82 at 2 ug, 59 at 0.5 ug; F6 printed ATCCLAH in Table 1, ATCGLAH in claim.

For “ATAGTGCTGCACAAGGCTGACCACATCC (double strand) [CISH exon 3 site 59581]”, in data set [1], the activity worked out at 82%. Sequence “CCGGAAAGGCCAGGATGCGTGGCCTGGA (double strand) [CISH exon 3 site 59580]” returned an activity in data set [2] of 82%. For “GTGGAGCGGACTGGGCAGCGGCCCCTGT (double strand) [CISH exon 2 site 59441]”, in data set [3], the activity was 84%.

With “GAGGAGGTGGCAGAGGGTACCCCAGCCC (double strand) [CISH exon 2 site 59489]”, in data set [4], the activity amounted to 89%. “GGAAGGCCCCAGCAGGCAAGGGCTGCAT (double strand) [CISH exon 2 site 59488]” had an activity in data set [5] of 89%.

In the case of “GAGTCCAGACGGAAGCTGGAGTCGGCAT (double strand) [CISH exon 3 site 59557]”, the activity in data set [6] worked out at 84%.

In turn, “GATGCGTGGCCTGGACAAGCAGTTGGAG (double strand) [CISH exon 3 site 59558]” yielded an activity in data set [7] of 84%. Take “CCAGCAAAGGACGAGGTCTAGAAGGCAG (double strand) [CISH exon 2 site 59440]”: in data set [8], the activity was found to be 84%.
